According to patent US20190040138A1 (AKESO BIOPHARMA, published 2019):
Positions count from the first letter of the chain named. One block for each binder: values may come before it.

Legend:
[1] = biological target: T1, PD-1-mIgGFc fusion protein; assay: ELISA on coated PD-1-mFc; antibody 1 µg/ml diluted 1:81; replicate 2
T1 construct: also called PD-1-mFc; PD-1-mIgGFc antigen
Description: (§1) An ELISA plate was coated with PD-1-mFc antigen in a concentration of 0.5 μg/ml (50 μl per well) by incubation at 4° C. overnight.
(§2) After the ELISA plate was washed with the PBST buffer for three times and gently patted to dryness again, TMB as a developer in 50 μl per well was added for incubation at room temperature for 5 to 10 minutes.
(§3) The absorbance of solution in each well was measured with the microplate reader under a wavelength of 450 nm.

[2] = biological target: T1, PD-1-mIgGFc fusion protein; assay: competitive ELISA on coated PD-1-mIgGFc; competitor PDL1-mIgG2aFc 0.3 µg/ml; antibody 1.5 µg/ml diluted 1:27; replicate 1
Description: (§4) A 96-well ELISA plate was coated with PD-1-mIgGFc antigen in a concentration of 0.5 μg/ml (50 μl per well) by incubation at 4° C. overnight.
(§5) The 18A10 H1L1, 18A10 H2L2 and 18A10 H3L3 antibodies each were diluted from 3 μg/ml in series by 1:3, with 7 gradient antibody solutions obtained for each antibody. The 7 gradient antibody solutions for each antibody and the blank PBS control (50 μl per well) were respectively added into the blocked 96-well ELISA plate for incubation at room temperature for 10 minutes.
(§6) After the 96-well ELISA plate was washed with the PBST buffer for three times and gently patted to dryness, goat anti-mouse IgG-HRP (H+L) as a secondary antibody in 1:5000 dilution (50 μl per well) was added for incubation at 37° C. for 1 hour.

[3] = biological target: T1, PD-1-mIgGFc fusion protein; assay: competitive ELISA on coated PD-1-mIgGFc; competitor PDL1-mIgG2aFc 0.3 µg/ml; antibody 1.5 µg/ml diluted 1:243; replicate 2
Description: as §4, §5, §6

[4] = biological target: T1, PD-1-mIgGFc fusion protein; assay: ELISA on coated PD-1-mFc; antibody 1 µg/ml diluted 1:729; replicate 1
Description: as §1, §2, §3

[5] = biological target: T1, PD-1-mIgGFc fusion protein; assay: ELISA on coated PD-1-mFc; antibody 1 µg/ml diluted 1:729; replicate 2
Description: as §1, §2, §3

[6] = biological target: T1, PD-1-mIgGFc fusion protein; assay: competitive ELISA on coated PD-1-mIgGFc; competitor PDL1-mIgG2aFc 0.3 µg/ml; antibody 1.5 µg/ml diluted 1:729; replicate 2
Description: as §4, §5, §3

[7] = biological target: T1, PD-1-mIgGFc fusion protein; assay: ELISA on coated PD-1-mFc; antibody 1 µg/ml diluted 1:3; replicate 2
Description: as §1, §2, §3

[8] = biological target: T1, PD-1-mIgGFc fusion protein; assay: ELISA on coated PD-1-mFc; antibody 1 µg/ml diluted 1:9; replicate 2
Description: as §1
The ELISA plate coated with the PD-1-mFc antigen was blocked with 1% BSA in the PBS buffer at 37° C. for 2 hours, and washed with 1×PBST buffer containing 1% Tween-20 for three times, with gently patting to dryness.
as §3

[9] = biological target: T1, PD-1-mIgGFc fusion protein; assay: ELISA on coated PD-1-mFc; antibody 1 µg/ml diluted 1:27; replicate 2
Description: as §1, §2, §3

[10] = biological target: T1, PD-1-mIgGFc fusion protein; assay: ELISA on coated PD-1-mFc; antibody 1 µg/ml diluted 1:3; replicate 1
Description: as §1, §2, §3

[11] = biological target: T1, PD-1-mIgGFc fusion protein; assay: ELISA on coated PD-1-mFc; antibody 1 µg/ml diluted 1:9; replicate 1
Description: as §1, §2, §3

[12] = biological target: T2, PD-1 antigen stably expressed on the surface of BB007 cells (UniProt Q15116 25-288, limits assumed); assay: flow cytometry on BB007 cells; antibody 1 nM
T2 construct: whole, on cells; also called target protein PD-1 on the surface of the BB007 cell
Description: (§7) The binding efficiencies of H1L1, H2L2 and H3L3 antibodies to PD-1 antigen stably expressed on the surface of cells (named as BB007 cells) were determined by flow cytometry. The BB007 cells were obtained by routine trypsin digestion, and then washed with PBS buffer once, followed by dividing into several tubes, with 2×10⁵ cells per tube. After dilution into concentrations of 20 nM, 10 nM, 5 nM, 1 nM, 0.1 nM and 0 nM with the PBS buffer containing 1% BSA for each of the H1L1, H2L2 and H3L3 antibodies, individual antibodies in a volume of 100 μl were added into individual tubes and incubated on ice for 1 hour. After the mixture was washed with the PBS buffer once, 100 μl FITC-Goat-Anti-Human IgG (in 1:500 dilution) was added for each tube and incubated on ice for 1 hour, followed by addition of 300 μl the PBS buffer for detecting fluorescence signal with a FITC channel on the flow cytometer.

[13] = biological target: T1, PD-1-mIgGFc fusion protein; assay: competitive ELISA on coated PD-1-mIgGFc; competitor PDL1-mIgG2aFc 0.3 µg/ml; antibody 1.5 µg/ml diluted 1:27; replicate 2
Description: as §4, §5, §3

[14] = biological target: T2, PD-1 antigen stably expressed on the …; assay: flow cytometry on BB007 cells; antibody 10 nM
Description: as §7

[15] = biological target: T2, PD-1 antigen stably expressed on the …; assay: flow cytometry on BB007 cells; antibody 20 nM
Description: as §7

[16] = biological target: T1, PD-1-mIgGFc fusion protein; assay: competitive ELISA on coated PD-1-mIgGFc; competitor PDL1-mIgG2aFc 0.3 µg/ml; antibody 1.5 µg/ml diluted 1:81; replicate 2
Description: as §4, §5, §3

[17] = biological target: T1, PD-1-mIgGFc fusion protein; assay: competitive ELISA on coated PD-1-mIgGFc; competitor PDL1-mIgG2aFc 0.3 µg/ml; antibody 1.5 µg/ml; replicate 2
Description: as §4, §5, §3

[18] = biological target: T1, PD-1-mIgGFc fusion protein; assay: competitive ELISA on coated PD-1-mIgGFc; competitor PDL1-mIgG2aFc 0.3 µg/ml; antibody 1.5 µg/ml diluted 1:3; replicate 1
Description: as §4, §5, §6

[19] = biological target: T1, PD-1-mIgGFc fusion protein; assay: competitive ELISA on coated PD-1-mIgGFc; competitor PDL1-mIgG2aFc 0.3 µg/ml; antibody 1.5 µg/ml diluted 1:243; replicate 1
Description: as §4, §5, §6

T1 sequence (chain, as listed by the source limits assumed): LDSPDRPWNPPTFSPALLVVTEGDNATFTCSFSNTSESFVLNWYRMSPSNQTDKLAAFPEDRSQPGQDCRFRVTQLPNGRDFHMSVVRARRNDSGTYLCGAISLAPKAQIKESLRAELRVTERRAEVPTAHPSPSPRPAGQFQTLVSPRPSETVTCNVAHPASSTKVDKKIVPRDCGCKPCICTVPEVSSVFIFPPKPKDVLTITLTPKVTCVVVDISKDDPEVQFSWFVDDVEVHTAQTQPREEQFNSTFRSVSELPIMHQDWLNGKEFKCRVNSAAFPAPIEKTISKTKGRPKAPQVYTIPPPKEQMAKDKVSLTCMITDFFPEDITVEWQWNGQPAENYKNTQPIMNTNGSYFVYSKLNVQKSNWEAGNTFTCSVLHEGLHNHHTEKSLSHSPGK
T2 sequence (Q15116 25-288 limits assumed): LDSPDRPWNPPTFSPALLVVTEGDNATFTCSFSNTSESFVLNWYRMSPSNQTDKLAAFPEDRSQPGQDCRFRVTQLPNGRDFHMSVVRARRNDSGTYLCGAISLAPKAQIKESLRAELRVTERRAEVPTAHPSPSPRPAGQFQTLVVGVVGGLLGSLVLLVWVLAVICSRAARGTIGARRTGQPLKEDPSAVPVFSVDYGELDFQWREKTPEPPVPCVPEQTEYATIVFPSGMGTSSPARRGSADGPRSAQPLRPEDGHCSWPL

- absorbance at 450 nm [1]: 1.14
- absorbance at 450 nm (competition) [2]: 0.951
- absorbance at 450 nm (competition) [3]: 1.21
- absorbance at 450 nm [4]: 0.226
- absorbance at 450 nm [5]: 0.224
- absorbance at 450 nm (competition) [6]: 1.19
- absorbance at 450 nm [7]: 2.36
- absorbance at 450 nm [8]: 1.98
- absorbance at 450 nm [9]: 1.63
- absorbance at 450 nm [10]: 2.13
- absorbance at 450 nm [11]: 2.18
- fluorescence intensity [12]: 92.5
- absorbance at 450 nm (competition) [13]: 0.903
- fluorescence intensity [14]: 349
- fluorescence intensity [15]: 329
- absorbance at 450 nm (competition) [16]: 1.1
- absorbance at 450 nm (competition) [17]: 0.102
- absorbance at 450 nm (competition) [18]: 0.097
- absorbance at 450 nm (competition) [19]: 1.16
B1: humanized antibody 18A10 H2L2 (antibody, V domains shown)
VH: EVQLVQSGGGLVQPGGSLKLSCAASGFTFSSYGMSWVRQAPGKGLDWVATISGGGRDTYYPDSVKGRFTISRDNSKNNLYLQMNSLRAEDTALYYCARQKGEAWFAYWGQGTLVTVSS
VL: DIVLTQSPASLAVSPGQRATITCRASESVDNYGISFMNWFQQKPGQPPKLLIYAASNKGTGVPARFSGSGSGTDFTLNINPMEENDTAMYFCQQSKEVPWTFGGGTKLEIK
notes: also called H2L2 antibody

- absorbance at 450 nm [1]: 0.809
- absorbance at 450 nm (competition) [2]: 1
- absorbance at 450 nm (competition) [3]: 1.21
- absorbance at 450 nm [4]: 0.2
- absorbance at 450 nm [5]: 0.185
- absorbance at 450 nm (competition) [6]: 1.24
- absorbance at 450 nm [7]: 2.09
- absorbance at 450 nm [8]: 2.06
- absorbance at 450 nm [9]: 1.5
- absorbance at 450 nm [10]: 2.29
- absorbance at 450 nm [11]: 1.95
- fluorescence intensity [12]: 110
- absorbance at 450 nm (competition) [13]: 0.986
- fluorescence intensity [14]: 386
- fluorescence intensity [15]: 367
- absorbance at 450 nm (competition) [16]: 1.19
- absorbance at 450 nm (competition) [17]: 0.102
- absorbance at 450 nm (competition) [18]: 0.103
- absorbance at 450 nm (competition) [19]: 1.2
B2: humanized antibody 18A10 H3L3 (antibody, V domains shown)
VH: B1 VH with N78T, L93V
VL: DIVLTQSPASLAVSPGQRATITCRASESVDNYGISFMNWYQQKPGQPPKLLIYAASNKATGVPARFSGSGSGTDFTLNINPMEANDTAVYFCQQSKEVPWTFGGGTKLEIK
notes: also called H3L3 antibody

- absorbance at 450 nm [1]: 0.834
- absorbance at 450 nm (competition) [2]: 1.06
- absorbance at 450 nm (competition) [3]: 1.21
- absorbance at 450 nm [4]: 0.186
- absorbance at 450 nm [5]: 0.163
- absorbance at 450 nm (competition) [6]: 1.3
- absorbance at 450 nm [7]: 2.34
- absorbance at 450 nm [8]: 1.98
- absorbance at 450 nm [9]: 1.65
- absorbance at 450 nm [10]: 2.35
- absorbance at 450 nm [11]: 1.96
- fluorescence intensity [12]: 64.4
- absorbance at 450 nm (competition) [13]: 1.04
- fluorescence intensity [14]: 316
- fluorescence intensity [15]: 358
- absorbance at 450 nm (competition) [16]: 1.14
- absorbance at 450 nm (competition) [17]: 0.107
- absorbance at 450 nm (competition) [18]: 0.123
- absorbance at 450 nm (competition) [19]: 1.26
B3: humanized antibody 18A10 H1L1 (antibody, V domains shown)
VH: B1 VH with A40T, G42E
VL: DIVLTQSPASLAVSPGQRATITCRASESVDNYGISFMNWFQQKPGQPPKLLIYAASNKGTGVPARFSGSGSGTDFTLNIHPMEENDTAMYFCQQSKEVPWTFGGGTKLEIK
notes: also called H1L1 antibody
